Assay results reported in patent US20220315554A1, “COMPOUNDS COMPRISING A […] LIGAND AND USE THEREOF” (priority 2019, published 2022).
Numbered stars: 1 amine (or outer) side, 2 acyl side, 3 side chain; on linkers, the order of the positions; unused ones are H or OH. Bridge positions count the residues as written; N and C are the ends. * marks the point of attachment. mXylylene = c1cc(C[*:1])cc(C[*:2])c1; Hexanoyl = CCCCCC(=O)*

B1: Hex-[Cys(3MeBn)-Pro-Pro-Thr-Glu(NH-Apr-DOTA')-Phe-Cys]-Asp-NH2 (peptide)
peptide: Hexanoyl-CPPTEFCD-NH2
modifications: linker 1-7 via mXylylene; not fully specified (residue 5); printed as Hex-[Cys(3MeBn)-Pro-Pro-Thr-Glu(NH-Apr-DOTA')-Phe-Cys]-Asp-NH2
B2: Hex-[Cys(tMeBn(DOTA-AET))-Pro-Pro-Thr-Gln-Phe-Cys]-Asp-NH2 (3BP-3426) (peptide)
peptide: CPPTQFCD
modifications: N-terminal Hex; Cys1 and Cys7 linked as thioethers via tMeBn(DOTA-AET); C-terminal NH2
B3: Hex-[Cys(3MeBn)-Pro-Pro-Thr-Glu-Ala-Cys]-NH2 (peptide)
peptide: Hexanoyl-CPPTEAC-NH2
modifications: linker 1-7 via mXylylene
SMILES: CCCCCC(=O)N[C@H]1CSCc2cccc(c2)CSC[C@@H](C(N)=O)NC(=O)[C@H](C)NC(=O)[C@H](CCC(=O)O)NC(=O)[C@H]([C@@H](C)O)NC(=O)[C@@H]2CCCN2C(=O)[C@@H]2CCCN2C1=O

Key:
[1] = target: T1, Recombinant human FAP (R&D systems, #3715-SE) (human)
T1 sequence: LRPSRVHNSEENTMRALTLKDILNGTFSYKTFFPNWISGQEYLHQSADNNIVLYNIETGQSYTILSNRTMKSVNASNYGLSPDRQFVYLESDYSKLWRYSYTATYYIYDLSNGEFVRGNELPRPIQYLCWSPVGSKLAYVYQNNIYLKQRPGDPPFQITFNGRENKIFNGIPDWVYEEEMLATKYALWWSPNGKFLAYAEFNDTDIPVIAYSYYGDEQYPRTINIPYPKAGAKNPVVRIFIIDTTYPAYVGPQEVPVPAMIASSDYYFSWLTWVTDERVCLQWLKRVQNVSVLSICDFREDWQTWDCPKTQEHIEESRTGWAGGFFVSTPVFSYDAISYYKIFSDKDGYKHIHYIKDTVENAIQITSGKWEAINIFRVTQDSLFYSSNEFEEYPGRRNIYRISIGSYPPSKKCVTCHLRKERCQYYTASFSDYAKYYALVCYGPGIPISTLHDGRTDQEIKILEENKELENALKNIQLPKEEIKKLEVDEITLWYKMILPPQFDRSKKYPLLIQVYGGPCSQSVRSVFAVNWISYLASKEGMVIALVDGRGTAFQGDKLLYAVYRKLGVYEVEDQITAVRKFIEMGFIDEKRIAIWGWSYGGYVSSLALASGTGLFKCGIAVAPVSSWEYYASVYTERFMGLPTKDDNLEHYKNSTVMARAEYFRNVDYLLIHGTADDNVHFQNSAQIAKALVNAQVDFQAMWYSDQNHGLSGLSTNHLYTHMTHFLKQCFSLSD

[2] = target: human fibroblast activation protein (FAP) on FAP-expressing human WI-38 fibroblasts (human); assay: competition FACS, WI-38 cells, vs Cy5-labeled compound; D: pIC50 ≤6.0; conditions: remark: other sources report otherwise
[3] = target: Recombinant human DPP4 (R&D systems, #9168-SE) (human)
[4] = target: recombinant human PREP (R&D systems, #4308-SE) (human)
Sequence of recombinant human PREP (R&D systems, #4308-SE) (human) (chain, as listed by the source limits assumed): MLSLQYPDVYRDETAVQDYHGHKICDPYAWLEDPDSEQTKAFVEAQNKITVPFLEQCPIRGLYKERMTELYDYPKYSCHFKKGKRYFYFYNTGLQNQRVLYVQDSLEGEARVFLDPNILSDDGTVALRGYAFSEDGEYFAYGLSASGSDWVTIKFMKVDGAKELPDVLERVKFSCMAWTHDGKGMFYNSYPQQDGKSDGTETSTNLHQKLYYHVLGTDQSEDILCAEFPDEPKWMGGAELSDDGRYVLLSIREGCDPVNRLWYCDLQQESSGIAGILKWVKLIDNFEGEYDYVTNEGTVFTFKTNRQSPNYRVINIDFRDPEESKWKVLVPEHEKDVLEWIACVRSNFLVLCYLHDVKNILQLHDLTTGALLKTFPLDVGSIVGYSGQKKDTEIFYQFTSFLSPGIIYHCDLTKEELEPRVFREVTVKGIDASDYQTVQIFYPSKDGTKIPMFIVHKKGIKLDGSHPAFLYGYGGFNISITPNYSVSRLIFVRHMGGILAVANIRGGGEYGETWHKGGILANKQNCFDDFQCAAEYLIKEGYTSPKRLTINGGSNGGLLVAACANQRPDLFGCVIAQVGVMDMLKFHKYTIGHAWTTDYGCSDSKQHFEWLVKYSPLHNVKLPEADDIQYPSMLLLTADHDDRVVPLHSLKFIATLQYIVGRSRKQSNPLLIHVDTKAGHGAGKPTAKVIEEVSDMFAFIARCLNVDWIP

Binder | pIC50 Category (Activity) [1] [pIC50] | pIC50 Category (FACS) [2] [pIC50] | pIC50 (DPP4) [3] [pIC50] | pIC50 (PREP) [4] [pIC50]
B1 | < 6 | < 6 |  | 
CPPTEFC (N-terminal Hex; Cys1 and Cys7 linked as thioethers via 3MeBn; C-terminal NH2) [Hex-[Cys(3MeBn)-Pro-Pro-Thr-Glu-Phe-Cys]-NH2 (3BP-3287)] |  |  | < 6 | < 6
B2 |  |  | < 6 | < 6
CPPTQFCD (N-terminal Hex; Cys1 and Cys7 linked as thioethers via 3MeBn; C-terminal NH2) [Hex-[Cys(3MeBn)-Pro-Pro-Thr-Gln-Phe-Cys]-Asp-NH2 (3BP-3476)] |  |  | < 6 | < 6
B3 |  | < 6 |  | 
